According to patent US20170015742A1 (published 2017):

T1: Cynomolgus monkey PDGF-BB (cynomolgus monkey, UniProt P01127 82-190 (human entry), limits assumed)
T1 chain: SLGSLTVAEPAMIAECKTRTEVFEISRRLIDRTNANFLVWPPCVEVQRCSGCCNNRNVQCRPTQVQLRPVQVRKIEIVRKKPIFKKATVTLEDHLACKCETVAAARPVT


Legend:
[1] = target: T2, recombinant human PDGF-BB (human, UniProt P01127 82-190, biotin-labelled in the binding and competition ELISAs (sites not given)); test: cell-based or functional assay
[2] = target: T2, recombinant human PDGF-BB; test: Biacore SPR, antibody captured by anti-human Fc, PDGF-BB injected
Experimental: (§1) For example, approximately 9000 RU of goat anti-human Fc specific polyclonal antibody (Thermo Fisher Scientific Inc., Rockford, Ill.) diluted in 10 mM sodium acetate (pH 4.5) is directly immobilized across a CM5 research grade biosensor chip using a standard amine coupling kit according to manufacturer's instructions and procedures at 25 μg/ml. Unreacted moieties on the biosensor surface were blocked with ethanolamine. For kinetic analysis, rate equations derived from the 1:1 Langmuir binding model were fitted simultaneously to multiple antigen injections (using global fit analysis) with the use of Scrubber 2 (BioLogic Software), Biacore Biaevaluation 4.0.1 software or Biacore T100 Evaluation software. Purified antibodies or DVD-Ig molecules were diluted in running buffer for capture across goat anti-human Fc reaction surfaces. Antibodies or DVD-Ig molecules to be captured as a ligand (1 μg/ml) were injected over reaction matrices at a flow rate of 10 μl/minute. During the assay, all measurements were referenced against the capture surface alone (i.e., with no captured antibody or DVD-Ig molecule). […] The equilibrium dissociation constant KD (M) of the reaction between antibodies and the target antigen was then calculated from the kinetic rate constants by the following formula: KD=Koff/Kₒₙ. Binding was recorded as a function of time and kinetic rate constants were calculated.

[3] = target: T3, Human PDGF-BB (human, UniProt P01127 82-190); test: cell-based or functional assay
Target sequence in this assay (P01127 82-190 limits assumed): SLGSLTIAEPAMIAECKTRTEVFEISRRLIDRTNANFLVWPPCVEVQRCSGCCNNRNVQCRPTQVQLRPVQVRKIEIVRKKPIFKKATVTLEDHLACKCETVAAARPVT

[4] = target: T1, Cynomolgus monkey PDGF-BB; test: cell-based or functional assay
[5] = target: T3, Human PDGF-BB; test: Biacore SPR, antibody captured by anti-human Fc, PDGF-BB as analyte
Experimental: as §1, with “Unreacted” for “For example, approximately 9000 RU of goat anti-human Fc specific polyclonal antibody (Thermo Fisher Scientific Inc., Rockford, Ill.) diluted in 10 mM sodium acetate (pH 4.5) is directly immobilized across a CM5 research grade biosensor chip using a standard amine coupling kit according to manufacturer's instructions and procedures at 25 μg/ml. Unreacted”, “calculated. In this assay, on-rates as fast as 10⁶M⁻¹s⁻¹ and off-rates as slow as 10⁻⁶ s⁻¹ could be measured. […]” for “calculated.”

[6] = target: T3, Human PDGF-BB; test: competition ELISA: antibody pre-incubated with hPDGF-BB-biotin, binding to coated hPDGF-Rβ-Fc
Experimental: Plates were then washed four times with wash buffer (TBS, 0.05% Tween-20) and blocked with Superblock blocking buffer (Thermo Scientific, cat#37535). During the blocking step, supernatants, antibodies, benchmark compounds or DVD-Ig were diluted in assay diluent (10% Superblock containing 0.05% surfactamps) and an eight point titration of each sample molecule was performed. […] Following incubation, plates were washed four times with wash buffer. Detection reagent Streptavidin-polyHRP-40 (Fitzgerald, cat#65r-s104phrp) was diluted in assay diluent and added to plates (50 μL) for 45 minutes at 25° C. with shaking. Plates were washed four times with wash buffer and developed with the addition of Enhanced K-blue TMB substrate (Neogen, cat#308177). The reaction was stopped with 2N sulfuric acid (VWR, cat# BDH3500-1) and the absorbance was read at 450 nm-570 nm. […] Data was analyzed using Softmax Pro 4.8 software and IC₅₀ values calculated using a sigmoidal dose response (variable slope) fit in GraphPad Prism 5.
Potency was evaluated in both cell-based and ELISA formats.
Target sequence in this assay (P01127 82-190 limits assumed): as above

T2 sequence (P01127 82-190 limits assumed): as above

| Binder | huPDGF-BB Neutralization Potency (nM) in NIH-3T3 Cells [1] [nM] | Kd [2] [pM] | koff [2] [s⁻¹] | kon [2] [M⁻¹ s⁻¹] | hPDGF-BB NIH-3T3 Proliferation IC50 [3] [pM] | cynoPDGF-BB NIH-3T3 Proliferation IC50 [4] [pM] | Kd [5] [pM] | kon [5] [M⁻¹ s⁻¹] | IC50 [6] [pM] |
| --- | --- | --- | --- | --- | --- | --- | --- | --- | --- |
| chBDI-1E1 half body (antibody, V domains shown) VH: EVKLQQSGDELVRPGASVKMSCKASGYTFTDYVMHWVKQSPGQGLEWIGTIIPLIDTTSYNQKFKGKATLTADKSSNTAYMELSRLTSEDSAVYYCARTSPYYYSSYDVMDAWGQGASVTVSS VL: NIQLTQSPSLLSASVGDRVTLSCKGSQNINNYLAWYQQKLGEAPKLLIYKTNNLQTGIPSRFSGCGSGTDYTLTISSLHSEDLATYYCYQYDNGYTFGAGTKLELK | > 10 | – | – | – | – | – | – | – | – |
| chBDI-9E8 half-body (antibody, V domains shown) VH: QVTLKESGPGILQPSQTLSLTCTFSGFSLSTYGMGVGWIRQPSGKGLEWLANIWWDDDKYYNPSLKNRLTISKDTSNNQAFLKITNVDTADTATYYCARIESIGTTYSFDYWGQGVMVTVSS VL: QFTLTQPKSVSGSLRSTITIPCERSSGDIGDSYVSWYQQHLGRPPINVIYADDQRPSEVSDRFSGSIDSSSNSASLTITNLQMDDEADYFCQSYDINIDIVFGGGTKLTVL | 1.84 | – | – | – | – | – | – | – | – |
| chBDI-5H1 half-body (antibody, V domains shown) VH: QVTLKESGPGILQPSQTLSLTCTFSGFSLSTFGMGVGWIRQPSGKGLEWLANIWWDDDKYYNPSLKNRLTISKDTSNSQAFLEITNVDTADTATYYCARISTGISSYYVMDAWGQGASVTVSS VL: QFTLTQPKSVSGSLRSTITIPCERSSGDIGDTYVSWYQQHLGRPPINVIYGNDQRPSEVSDRFSGSIDSSSNSASLTITNLQMDDEADYFCQSYDSDIDIVFGGGTKLTVL | > 10 | – | – | – | – | – | – | – | – |
| chBFU-3E2-B9-B8 (antibody, human IgG1, V domains shown) VH: EVQLQQSGPELQRPGASVKLSCKASGYTFTESYMYWVKQRPEQSLELIGRIDPEDGSTDYVEKFKNKATLTADTSSNTAYMQLSSLTSEDSATYFCARFGARSYFYPMDAWGQGTSVTVSS VL: DTVLTQPPALAVSPGERVSISCRASESVSTLMHWYQQKPGQQPRLLIYGASNLESGVPARFSGSGSGTDFTLTIDPVEADDTATYFCQQSWNDPWTFGGGTKLELK | 0.099 | ≤ 19 | 0.00019 | ≥ 1e+07 | – | – | – | – | – |
| chBFU-11A8 half-body (antibody, V domains shown) VH: EVQLQQSGPELQRPGASVKLSCKASGYTFTESYIYWVKQRPEQSLELIGRIDPEDGSTDYVEKFKNKATLTADTSSNTAYMQLSSLTSEDTATYFCARFGARSYFYPMDAWGQGTSVTVSS VL: DTVLTQSPTLAVSPGERVSIPCRASESVSTLMHWYQQKPGQQPRLLIYGASNLESGVPARFSGSGSGTDFTLTIDPVEADDTATYFCQQSWNDPWTFGGGTKLELK | > 10 | – | – | – | – | – | – | – | – |
| chBFU-11A8-D6-C3 (antibody, human IgG1, V domains shown) VH: EVQLQQSGPELQRPGASVKLSCKASGYTFTESYIYWVKQRPEQSLELIGRIDPEDGSTDYVEKFKNKATLTADTSSNTAYMQLSSLTSEDTATYFCARFGARSYFYPMDAWGQGTSVTVSS VL: DTVLTQSPTLAVSPGERVSIPCRASESVSTLMHWYQQKPGQQPRLLIYGASNLESGVPARFSGSGSGTDFTLTIDPVEADDTATYFCQQSWNDPWTFGGGTKLELK | 0.086 | ≤ 15 | 0.00015 | ≥ 1e+07 | – | – | – | – | – |
| chBFU-3E2 half-body (antibody, V domains shown) VH: EVQLQQSGPELQRPGASVKLSCKASGYTFTESYMYWVKQRPEQSLELIGRIDPEDGSTDYVEKFKNKATLTADTSSNTAYMQLSSLTSEDSATYFCARFGARSYFYPMDAWGQGTSVTVSS VL: DTVLTQPPALAVSPGERVSISCRASESVSTLMHWYQQKPGQQPRLLIYGASNLESGVPARFSGSGSGTDFTLTIDPVEADDTATYFCQQSWNDPWTFGGGTKLELK | 2.49 | – | – | – | – | – | – | – | – |
| CL-33855-IgG (antibody, V domains shown) VH: EVTLRESGPALVKPTQTLTLTCTFSGFSLSTYGMGVGWIRQPPGKALEWLANIWWDDDKYYNPSLKNRLTISKDTSKNQVVLTMTNMDPVDTATYYCARIETFGPKYSFDYWGQGTMVTVSS VL: EIVLTQSPGTLSLSPGERATLSCRASSGSIWYSFVSWYQQKPGQAPRLLIYADDQRASGIPDRFSGSGSGTDFTLTISRLEPEDFAVYYCQSYGINIDVVFGGGTKVEIK | – | – | – | – | 37 | 19 | ≤ 0.05 | 2e+07 | 162 |
| CL-33701-IgG (antibody, V domains shown) VH: EVTLRESGPALVKPTQTLTLTCTFSGFSLSTYGMGVGWIRQPPGKALEWLANIWWDDDKYYNPSLKNRLTISKDTSKNQVVLTMTNMDPVDTATYYCARIESLGTSYSFDYWGQGTMVTVSS VL: EIVLTQSPGTLSLSPGERATLSCERSSGDIWDYYVSWYQQKPGQAPRLVIYADDQRPSGIPDRFSGSGSGTDFTLTISRLEPEDFAVYYCQSYDLFIDVTFGGGTKVEIK | – | – | – | – | 56 | 12 | 0.24 | 7.3e+07 | 59 |
| CL-33805-IgG (antibody, V domains shown) VH: EVTLRESGPALVKPTQTLTLTCTFSGFSLSTYGMGVGWIRQPPGKALEWLANIWWDDDKYYNPSLKNRLTISKDTSKNQVVLTMTNMDPVDTATYYCARIESHWWSYAFDYWGQGTMVTVSS VL: EIVLTQSPGTLSLSPGERATLSCERSSGSNYDTYVSWYQQKPGQAPRLLIYADDLRASGIPDRFSGSGSGTDFTLTISRLEPEDFAVYYCQSYGIETDIVFGGGTKVEIK | – | – | – | – | 39 | 18 | 0.21 | 6.8e+07 | 63 |
| CL-33803-IgG (antibody, V domains shown) VH: EVTLRESGPALVKPTQTLTLTCTFSGFSLSTYGMGVGWIRQPPGKALEWLANIWWDDDKYYNPSLKNRLTISKDTSKNQVVLTMTNMDPVDTATYYCARIESLPTSYSFDYWGQGTMVTVSS VL: EIVLTQSPGTLSLSPGERATLSCERSSGDIWDTYVSWYQQKPGQAPRLLIYADDQRPSGIPDRFSGSGSGTDFTLTISRLEPEDFAVYYCQSYDIIIDIVFGGGTKVEIK | – | – | – | – | 24 | 18 | ≤ 0.16 | ≥ 9e+07 | 44 |
| CL-33820-IgG (antibody, V domains shown) VH: EVTLRESGPALVKPTQTLTLTCTFSGFSLSTYGMGVGWIRQPPGKALEWLANIWWDDDKYYNPSLKNRLTISKDTSKNQVVLTMTNMDPVDTATYYCARIESSFTSYSFDYWGQGTMVTVSS VL: EIVLTQSPGTLSLSPGERATLSCKRSSGSIYDTYVSWYQQKPGQAPRLVIYSDDQRPSGIPDRFSGSGSGTDFTLTISRLEPEDFAVYYCQSYDLTIDITFGGGTKVEIK | – | – | – | – | 17 | 13 | ≤ 0.16 | ≥ 9.8e+07 | 66 |
